# Laboratory results from the NTF2 design screens of Basanta et al. (2020).
# Test: protease stability score; higher = more stable; yeast display proteolysis, trypsin and chymotrypsin;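 further: relative to predicted unfolded state with 0 unfolded-like and 1 meaning tenfold more protease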
row,Sequence,protease stability score
1,DEENKHLKEIARRFVEDWETGDEDSLKHMLDPHARVVINGVEVHGREEIIKLFREIFHHIRIDHITVNTVITVNGVAHSHIHIRVDINGQERRHNTELIFVFVDGQVSQIKFETE,1.24
2,SEEKDDANRHLEIFFHYFITGDESSMLREADPHVQVEQGDKHIHGMEEWVTEWSKREKELGAKHIKLEDKRIHLINGRVHLILDLIIEVGDKRRRMILIVTIDKINGRWVMSQMKLEVR,1.2
3,DEVEENAIRIAEDMLNNVLTGDEHLLRQLLDPHVRFILIVGDKTYTWHGREDFLEWLRKRLKQIDHEHIIIRDIKVVGDKAHIDGELHINVNGRTEDTRVHWDILVINGRIHKIRIIIH,1.38
4,DDEKARQQVREFIRAMETGDEDSMVQQLDENAHVHIGDHVWRGREQARNAFKEFVKQFDRIEVKRVEYRNGDVVIDAVANVNGVRVRIIFKIHIHNGRIKNLRIEYRDEEEKKQLDG,2.29
5,SEDEEIVKKMSKEELEFWRTGNEHELSKLFDPDVLLFVGEKIFHGREVFKHFKERVDHFHEFRDKHIQVIDGRIHIDSEVNSRFNGRQLSEDVRIQALKFDGRWHYKSIHML,0.336
6,SEHEHELIEFAELFREIIATGDEDALRRLLDPNTQWDFNGVDLHGRDEVIKELRRWRDRFPNMRVHIRRIRLEVINGRLQLDLHTFVEFDGVEFVQHIHLHIEKVNGRWSVHHIEVRYR,1.1
7,SEETEETERVEREISHARLTGDEQFLKEMLDPNTRLLINGVILVGREALEHFVREMRVERVEVKDVRVQGDKLHIDTTSDVHYNGRRWTIKTHLIMVKVDGRWLMESVEFK,1.62
8,SENHRNLLEWARIALEALITGDWKMLLDLLDPNVRFIFNGVHLHGMEHVFHRMTREIKEIRIKFEVHDMRSIGEKVEMDTRRHVEVNGVETTIDTRVHVVVIDGVIHEIRIEHR,1.1
9,DEHEEASKLAIELLLTLERTGDEDKLRKLVDPNVRYDINGRELHGWEFMHRMIRHLRTEHVTIERVHVQGDWIHIDRILNVNVNGKEINIRTKINAQKINGVWIEREVEIQ,1.09
10,SHEEEIAREISRDLFRAFLTGDEDWLLKNLDPDARLHVSVGDKSEHFHGREEVMKFVREWRVHRIEIKELRVFNGRIHSRVHVYGEFNGQRFRTDIHENYNIVDGRIKEIHVEIR,1.66
11,NEDEEKAKRFVKTYVHSLVTGDWKLWSEMADPNMILIYGDKTFIGREHFEEFFRRHIEELRFDSFHVDHVEIQGDKAELESRVSVIINGVERELETNMFLHKVDGRWLLTKFEVH,2.08
12,DELRTHAKKMILILFHHLLTGDEEWLHRFMDPSTRRDVGDKELHGMEQITHDIVKEIFLRGAEIHITIRTFRFQGNYLDANIEIKIIVNGQEIHFEVLIHIVKVDGVWLVRSMRFH,1.43
13,DEDEETLHEIVEILIRWLKTGDFDAVLKNLDPDARVEINGQELHGREQWYRYIHEEWKKVKNLTIIVSRMHVQGDKVMFEGEVHFDGQRRDVSIDMRVVNGRFRTIKKEVK,1.28
14,STREEETRRISDMIVKSLMTGDWRTFHDLLDPNVKVEINGKEMHGWKAWEDYIREMGIKVFDYHRIEVDENHLLMDGIDKVDGREHRSHYEITIIDGRIRRVEIRHK,1.1
15,DEEERHTREMADWFITLFLTGNEEIMMELADPNMRLEHISEDEHYEYHGMHDVSRWLHELLLKFKNIRVRLRRIRIQGDYVIIHQDLNYNGKRVHVIIIVHIFDGRIKSLRFEFR,1.67
16,TEEEHNVRIALSLYIETFKTGNEEVLRRRLDPNARLIFNGRDLHGRELIEDWIHEFHEKVPGLQIHRHEVKDWHVQGNKIDLDVHIDGVFDGKQTETRVILHILKVDGQWIMTVIEIR,1.35
17,SEDEDFMQKALKHDWELWETGDEEKIQKQADPHVRMDFDGVEYHGMELFSELLDRYLRKVKGLQIRLRHVHVKIINGQAIMDIDGTVNINGREIRLHIKIFNEKINGKWIHSSIRFEFR,1.21
18,HEEEELARKLVEILLNLLLTGDEDVIRHLLDPNARIHIDGQDNVGREEVIRVWRHWLEKFGIDHIEINRIHYQGEWLHIIGLVKVNGRERPLHIHLNVINGRLKHSEFRIR,1.48
19,SEEEEKIKKLHTDWLHLLLTGDEDRLKQLMDPHAKISIEQGDFHLDLHGREDIIEFYWEERHRIDHLDIRVRHIEVWNGKIITKEENRIDFNGRKHVTEVDLEIEIVDGKFRSLHIRIH,1.02
20,DERHKHDIEVAKEFLEVERTGDEHLLRRLADPHVLSNINGVHNHGRETVIEFWREWFEEWRVTEIKIRHLDAYDGRVRIEGRMRVIYDGREHTIDSEFRLVVVNGRLKSMELILH,-0.043
21,SEDDEFYKHAFNLMIRVLETGDEELFTKMADPNVRSEINGQDIHGREMLSHIVLEEVRRADHIEFRIDHFRVIGDKVEHDGTKILNVNGVNIELRFHLHSVKVNGKWILKSERVD,0.869
22,DEDEKEATHWWRLLIKNIETGDEKSEKELLDPHARVEIGEFESVGRETVAEMWFRLMEHIRLKDSHEKDFDMQGDYMHVNGHVVGEYNGKHIKSDVRIILIVIDGRVKEVTVKIH,0.208
23,DEEHEEYMDWAIIHLHDWLTGDEDHHNELADPNDRLELVIGDKRIERIGREEVTKQLHEFRKHMRVHRIEIKTRNVYNGKAHLHGIMHFRVGDKKYDVETHIVIVIINGVLKQVKIEIR,0.773
24,NEREKWAVDMFEILVHLFFTGDEEIMAHMADPNTQIHYGEYHHHGRDHLRELLREEFKRVDHVEWRLDTVRIIDGRVLIHSHVIHKVGEKTIKREYVIILLKVNGQWHIKHIEIR,1.46
25,HELKEELDEKLEFILRVFRTGNEERWRRLFDPEVRIEVGDKEIHGMDEALHFASHMRVEFKEMNFEDIRIVGEWVTLHIRVRGTIVYNGKKVERSMHIIIIILKIDGKWHIHEFRIH,1.44

row,Sequence,protease stability score
1,DEEEKLMKHRWEEWVRFLKTGDFDEIHDYMDPNVRLFIGDKTFHGRDVFARLVYRMGAKHVEFDLHDEHLINGKLIFHGRVVHTQGDKFIEFEVEIIAEKVNGKWLNRHQIFR,0.456
2,SEKDDFLEQLQKLWHEILVTGDEHRLKKLADPDMRFIYGDFESIGREEFLQMMRDMLREIRITHIELRTFDAYDGQLIILTTQHVSIGDKRIELTVHLFWIKVDGKWKLRRLKFE,1.79
3,SEDEKIHREMSKIMLEDLFTGDWKSLRDLVDPNVRIIVDGREFHGREYYSRELIEELLKFKNARFDIEHVELRIYDGRLRTLIHMRVNIDGVEHWVIVEVDFTKIDGRWYVEEIRVEVR,1.33
4,SEEERDMKEWLRLHVEALRTGDEHHLRHLMDPHTRIQVGDKEIHGMDEIARHVREIRQHVEIRVHHVEIIGDKIIMDVELRLIVHFDGKTFDIKTRFLLHIWKVNGRWILKSVHIE,1.21
5,HEQDEAWDVINRDLAQSIETGDEHTERELLDPNVRIDFDGVKLHGRDEWHDFVRKELEHLGVDRIDIRIEIHNSKYQGEKVDSDTELKIRYGDKHVRIKTRLILHKIDGRWLVKSIQIN,1.1
6,SEEEKEYEHWMRLYLHWRLTGDEEAEKRNADPNTRVEFNGKELHGMEVVSEFIIKLRNEMRFEFLEIDDMRVIDGVSHFDVTVDGVIDGKRVRLTLHIILIVINGKIHHIQEEWK,1.43
7,NEEEEESKFANELWEETVKTGDERLNRSLADPNTRFHINGVDLHGWESMDETARRYKNITVRLHDMRTYNGRVHLDFEMRVGEFTTKVIIIARKFDGRWILKSIIVH,1.2
8,SEEHEDIKKFLDDLHSAWNTGDWKALEHMLDPHVKFEINGRNFVGREEVRKLLEQIRLHPRSEIKDVRMQGEFVIVDGRVKIKINVNGREHHEVQEIILYLRKVNGKWYIEEIEIR,1.54
9,SEEEEEMRRWFEILIRAIRTGDEHVLKRLIDPDAQEDVNGKRIHGMEDMSRLLSEMRIKSWEIRRSHFVGNKIELDGHRRGHVNGRDIDDHVIIHILKIDGKWTLHRVEVS,2.12
10,SDDEQNVRDTFTEFVESMETGDEDHMLEMVDPHVRIEFENHSHIGRDNVHRWILFFKNATLRWKLERMHVYDGRVEIHSRMEVEVNGREIEFNIILHVRKVDGKWVIHEIRIH,1.14
11,DELERVSERAIKIFLHVFKTGDEHMHERMADPNVRVHVDGQDLHGREETVEHMLHFFERIKNVKIDVEDSKAYGDKVIVHSRLHWNGVTQHVELEMRKVNGRWEVTEIIIH,0.1
12,TEDEEISEKAFRYLVESLETGDEETDRHLADPHVRIVFEGRSYHGREQFHEIMSHIRVHHVEIRDVRVQGNKVDWDTQSKVEFNGRKYWVQTRIIVLKVDGRWILHSYILK,0.708
13,HEDEELSEWMEREMIDIMRTGDEHRFLRMADPNTRFEFNGKDIHGRERVLDVLEFLGIDHMEFEDSKVRLYDGRVEVRLEGRINVGDKQSESRITIKAEKINGRWVLHEVSIEHH,0.821
14,DEETEIEKHAMEHIFRANETGNWREILEMIDPNVKIEYGDKERHGMTIYLEILELWGITKIHLDIQSIRVINGRMDIHGRIVFNGKTHTVDLHLLKVDGRWILTEIRVR,1.3
15,DEDEEMMEHLIRILVEVLKTGDWKELLKLADPHVRQDVNGVDIHGREDVSRRLANQAKELRLELHLQDVKVWNGRVDFDSRLHINQGEKYVQLHVRIITEKIDGRWRITEIHVR,1.62
16,SNEDEIAQHLVRLILNAHLTGDEKLLETLADPTMRFTLRIGDKQHERHGREEWIKWVRHTIERIDHIEIRIDDRRIQGDKIEIDGTLRLEIGDKVNQVRVDIIIHLVNGRLKEVIIEVV,2.06
17,SEVEKHLHNVIELYIRALRTGDEERLRKLLDPHVRVRIGDKHLHGREDWWQHVTRYDHESVHDLKIDHVRVVGNKIEMIITHDIIIIVNGVNLRHSIETEVHARKVDGVWYLTELHHG,0.075
18,DEDHDIIREALERWRHYVHTGDWRSLLKMMDPHVRNDVDGVDIIGREEASRYYREVFERLGVDHIDIHLRDMQIQGDKVTVHSELELNYNGRRFMHDIEIISVKVDGRWSIRSVFSK,1.41
19,SEDEDLFHHVLHVWLNAMETGDFEVFKHLLDPRTKEHQGDKHLIGREDALRKFREEWEKYPNMRVEIRVDDWDIQGNKIRAKVHIIIRQGDKTYSVEIDLIMVKVNGRWFIHSIIIH,0.966
20,SEDEKHAHEFLEQFIRDWVTGNEESFELMLDPDMRLNINGRDFHGREEAVRHFSHRFKQLGVKHIELKEVDIDVFDGKVHSTYDGVERFNGQELRVRIEVEVLKINGQWYLHRVVVKIE,2.27
21,DDTLRDLFHLIELFHKALKTGDEQKMRENLDPHAKFDWDGRDYVGMEEVVKYVVEARIESTFHIHSVRKIGNKLDVDGTFSLEVDYNGKKEDIHSRQHHFIYKVDGQWIIKRIIIK,0.537
22,DEDEEFWKELLRLFNEALITGDEDLLSHYADPNTRIRDENHKIHGRERYSRLMVKLGIDHVHLHSFTIIDGVAHIHLEWHQGDKTLDVRSYSRKFNGRWFLTHVRIK,1.05
23,DEEKKLMLESMKQTLDKIFTGDFDSTAEYLDPHARYIIGDKTLHGMERWKEFLDRFDHVHIHDVKLHSVRIIDGVAILDGRIDTEIIINGVRIRETVEVQIVIVKVNGRWKDERVEFK,0.13
24,DEEKEIVENTTRLYWHLMETGNFDRWMKEADPNTRQDVDGKELHGMELVAHRIRELLEKFKGVRFHVEDIKIINGRSHMDIRIIIGDKHIEAHLILLVVDGRLKHVSLIIR,1.99
25,DEDEESSKLAIEFLLRALITGDEKTMSELLDPNARLVVNGVEIVGMHVIVRHFIEMRLERIHVRIRSWTVFDGRLLNDTELHRHINVNGVEEDRSNRVELFVKKVDGKWKLEMIIIN,2.63
